The Ki is a dissociation constant, usually derived from enzyme kinetics or from competition with a known ligand.

The target in assay [1] is human α-thrombin (recombinant) (human) (UniProt P00734). Nature of the assay: cell-based or functional assay.
Assay [2] shares this target. The assay is described as follows: assay not named.

Some results are limits rather than exact numbers.

With β-variegin (peptide), in assay [1], the time to observe clot formation in blood tubes, 300 µM peptide was 4 h. Besides, in assay [2], the inhibitory constant (Ki) was greater than 30 nM.

(Values after patent publication US20190002511A1.)
